Measurements as given in paper PMC8316464.

Legend:
Test in all cases: SPR; Biacore S200; Bcl-2 family proteins immobilised on CM5 (amine coupling or His-Capture Kit); peptides and flag-tagged proteins as analytes, single-cycle kinetics, HBS-EP, 25 °C; 1:1 Langmuir model; absence of binding probed at 100 nM and 3 µM
[1] = molecular target: Bcl-2 (human) (UniProt P10415)
[2] = molecular target: Bcl-xL (human) (UniProt Q07817)
[3] = molecular target: His-tagged human Mcl-1 (human) (UniProt Q07820)
His-tagged human Mcl-1 (human), sequence (Q07820 whole entry): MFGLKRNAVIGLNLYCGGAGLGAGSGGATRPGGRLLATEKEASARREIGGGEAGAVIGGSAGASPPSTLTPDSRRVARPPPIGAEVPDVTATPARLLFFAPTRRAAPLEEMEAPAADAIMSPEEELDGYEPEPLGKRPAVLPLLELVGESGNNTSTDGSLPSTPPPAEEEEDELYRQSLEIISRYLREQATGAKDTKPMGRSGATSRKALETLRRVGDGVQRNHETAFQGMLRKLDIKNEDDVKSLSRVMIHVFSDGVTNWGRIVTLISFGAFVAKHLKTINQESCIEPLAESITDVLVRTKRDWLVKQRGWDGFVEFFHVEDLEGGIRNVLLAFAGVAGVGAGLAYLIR

Bcl-xL (human), sequence (Q07817 whole entry): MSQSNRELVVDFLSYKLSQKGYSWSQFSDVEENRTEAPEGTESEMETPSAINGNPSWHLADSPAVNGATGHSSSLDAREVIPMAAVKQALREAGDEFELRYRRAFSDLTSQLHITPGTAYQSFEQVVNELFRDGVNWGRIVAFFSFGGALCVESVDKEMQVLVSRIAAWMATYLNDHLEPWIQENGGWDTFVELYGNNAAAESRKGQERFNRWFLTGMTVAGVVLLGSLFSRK

Binder | Kd [1] | Kd [2] | Kd [3]
ESQEDIIRNIARHLAQVGDSMDRSI [Bid BH3 peptide (25-mer, residues 77-101)] | 96.7 nM | 7.12 nM | 12.8 nM
ESQEDIIRNIIRHLAQVGDSMDRSI [Bid (A87I) peptide] | 158 nM | 28.5 nM | –
